Assays:
purified protein = substrate: Nc1ncnc2c1ncn2[C@@H]1O[C@H](COP(=O)(O)OP(=O)(O)OP(=O)(O)O)[C@@H](O)[C@H]1O; assay: purified protein; conditions: 500 nM MetNI in DDM, equimolar MgCl2 and ATP, 37 °C, no MetQ, no Met
[1] = target: T1, E. coli MetNI transporter, N295A mutant (E. coli, UniProt P30750 1-343; P31547 1-217, N295A); assay: cell-based or functional assay
T1 sequence (looked up) 1: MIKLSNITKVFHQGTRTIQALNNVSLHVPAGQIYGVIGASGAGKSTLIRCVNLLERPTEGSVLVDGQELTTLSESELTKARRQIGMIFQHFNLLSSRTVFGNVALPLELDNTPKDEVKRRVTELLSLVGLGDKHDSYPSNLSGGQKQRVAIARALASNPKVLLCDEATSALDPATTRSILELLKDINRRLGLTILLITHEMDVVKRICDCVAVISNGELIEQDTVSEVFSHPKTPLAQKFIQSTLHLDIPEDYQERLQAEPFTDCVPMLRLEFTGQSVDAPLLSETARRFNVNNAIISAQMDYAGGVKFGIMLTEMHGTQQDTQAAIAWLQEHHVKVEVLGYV
T1 sequence (looked up) 2: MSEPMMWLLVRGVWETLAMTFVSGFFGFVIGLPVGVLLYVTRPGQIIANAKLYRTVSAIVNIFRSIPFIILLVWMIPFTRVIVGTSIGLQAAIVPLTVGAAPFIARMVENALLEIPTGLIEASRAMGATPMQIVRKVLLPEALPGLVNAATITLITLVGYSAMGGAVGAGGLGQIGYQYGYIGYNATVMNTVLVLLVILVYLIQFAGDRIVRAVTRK

[2] = target: T2, E. coli MetNI transporter, E166Q/N295A double mutant, detergent-solubilized (E. coli, UniProt P30750 1-343; P31547 1-217, E166Q | N295A); assay: FP; unfolded-refolded N229A MetQ, ATP/EDTA
T2 sequence 1: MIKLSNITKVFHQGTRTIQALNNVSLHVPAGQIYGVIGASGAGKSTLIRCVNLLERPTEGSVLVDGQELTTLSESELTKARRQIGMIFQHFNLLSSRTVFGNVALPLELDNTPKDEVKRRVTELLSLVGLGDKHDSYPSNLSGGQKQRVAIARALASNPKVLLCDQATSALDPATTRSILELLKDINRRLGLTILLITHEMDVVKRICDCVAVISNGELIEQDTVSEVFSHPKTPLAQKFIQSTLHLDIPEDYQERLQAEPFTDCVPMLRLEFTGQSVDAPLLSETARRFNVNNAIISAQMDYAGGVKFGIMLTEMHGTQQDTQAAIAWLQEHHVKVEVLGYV
T2 sequence 2: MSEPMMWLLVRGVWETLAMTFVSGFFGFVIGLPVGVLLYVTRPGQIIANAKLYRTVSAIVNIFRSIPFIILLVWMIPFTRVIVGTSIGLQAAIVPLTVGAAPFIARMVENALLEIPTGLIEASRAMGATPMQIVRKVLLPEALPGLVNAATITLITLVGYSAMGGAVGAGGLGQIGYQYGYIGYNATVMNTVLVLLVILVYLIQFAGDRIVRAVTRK

[3] = target: T3, E. coli MetNI transporter, E166Q/N295A double mutant, detergent-solubilized (E. coli, UniProt P30750 1-343; P31547 1-217, E166Q | N295A); assay: fluorescence polarisation; 20 nM fluorescein-labelled MetQ held constant, detergent-solubilized E166Q/N295A MetNI 0-10 uM; ATP-bound state mimicked with 5 mM ATP and 10 mM EDTA; no methionine added (unfolded-refolded WT MetQ or native N229A); 57.5 mM Tris pH 7.5, 10 mM TAPS pH 8.5, 150 mM NaCl, 1.5 mM bME, 0.05% DDM; single-site binding model; conditions: both partners purified
T3 construct: MetI, the transmembrane (permease) subunit of the E. coli methionine ABC importer MetNI; also called E166Q/N295A MetNI; source: purified, detergent-solubilized (DDM); copies: 2 + 2
T3 sequence (looked up) 1: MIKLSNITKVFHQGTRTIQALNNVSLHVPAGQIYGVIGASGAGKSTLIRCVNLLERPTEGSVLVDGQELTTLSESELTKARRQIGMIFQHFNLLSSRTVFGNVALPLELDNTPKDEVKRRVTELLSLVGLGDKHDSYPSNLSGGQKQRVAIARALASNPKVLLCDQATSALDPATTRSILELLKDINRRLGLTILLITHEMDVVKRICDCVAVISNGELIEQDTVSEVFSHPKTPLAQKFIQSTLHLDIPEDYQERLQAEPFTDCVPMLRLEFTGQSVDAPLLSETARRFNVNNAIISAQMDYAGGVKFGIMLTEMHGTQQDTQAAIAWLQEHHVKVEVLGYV
T3 sequence (looked up) 2: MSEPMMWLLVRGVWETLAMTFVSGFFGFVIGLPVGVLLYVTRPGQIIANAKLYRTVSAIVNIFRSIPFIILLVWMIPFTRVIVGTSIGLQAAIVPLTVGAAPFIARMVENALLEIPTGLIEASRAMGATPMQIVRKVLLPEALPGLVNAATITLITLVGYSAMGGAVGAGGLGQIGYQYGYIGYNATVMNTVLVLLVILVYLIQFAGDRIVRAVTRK

[4] = target: T3, E. coli MetNI transporter, E166Q/N295A …; assay: fluorescence polarisation; as a1 (5 mM ATP and 10 mM EDTA), unfolded-refolded WT MetQ with exogenous 100 uM D-Met; conditions: both partners purified
[5] = target: T3, E. coli MetNI transporter, E166Q/N295A …; assay: fluorescence polarisation; as a1 (5 mM ATP and 10 mM EDTA), unfolded-refolded WT MetQ with exogenous 100 uM L-Met; conditions: both partners purified
[6] = target: T3, E. coli MetNI transporter, E166Q/N295A …; assay: fluorescence polarisation; control: native WT MetQ (co-purifies with L-Met, not unfolded-refolded) with detergent-solubilized E166Q/N295A MetNI; conditions: both partners purified

B1: MetNI (Escherichia coli K-12) (protein)
chain: MIKLSNITKVFHQGTRTIQALNNVSLHVPAGQIYGVIGASGAGKSTLIRCVNLLERPTEGSVLVDGQELTTLSESELTKARRQIGMIFQHFNLLSSRTVFGNVALPLELDNTPKDEVKRRVTELLSLVGLGDKHDSYPSNLSGGQKQRVAIARALASNPKVLLCDEATSALDPATTRSILELLKDINRRLGLTILLITHEMDVVKRICDCVAVISNGELIEQDTVSEVFSHPKTPLAQKFIQSTLHLDIPEDYQERLQAEPFTDCVPMLRLEFTGQSVDAPLLSETARRFNVNNNIISAQMDYAGGVKFGIMLTEMHGTQQDTQAAIAWLQEHHVKVEVLGYV
With B1 the Km (purified protein) was 800 ± 100 µM and the kcat (purified protein) was 0.4 ± 0.067 s⁻¹.

B2: MetNI (Escherichia coli K-12; N295A) (protein)
chain: MIKLSNITKVFHQGTRTIQALNNVSLHVPAGQIYGVIGASGAGKSTLIRCVNLLERPTEGSVLVDGQELTTLSESELTKARRQIGMIFQHFNLLSSRTVFGNVALPLELDNTPKDEVKRRVTELLSLVGLGDKHDSYPSNLSGGQKQRVAIARALASNPKVLLCDEATSALDPATTRSILELLKDINRRLGLTILLITHEMDVVKRICDCVAVISNGELIEQDTVSEVFSHPKTPLAQKFIQSTLHLDIPEDYQERLQAEPFTDCVPMLRLEFTGQSVDAPLLSETARRFNVNNAIISAQMDYAGGVKFGIMLTEMHGTQQDTQAAIAWLQEHHVKVEVLGYV
With B2 the Km (purified protein) was 812 ± 4 µM and the kcat (purified protein) was 0.4 ± 0.067 s⁻¹.

B3: E. coli MetQ N229A, secreted (non-lipidated), C-terminal 6x-histidine tag (natural protein, UniProt P28635 23-271, looked up)
chain: CGQDEKDPNHIKVGVIVGAEQQVAEVAQKVAKDKYGLDVELVTFNDYVLPNEALSKGDIDANAFQHKPYLDQQLKDRGYKLVAVGNTFVYPIAGYSKKIKSLDELQDGSQVAVPNDPTNLGRSLLLLQKVGLIKLKDGVGLLPTVLDVVENPKNLKIVELEAPQLPRSLDDAQIALAVINTTYASQIGLTPAKDGIFVEDKESPYVALIVTREDNKDAENVKKFVQAYQSDEVYEAANKVFNGGAVKGW
modifications: fluorescein 5-maleimide on the single native cysteine at position 23 (anisotropy experiments)
notes: secreted non-lipidated form isolated from the periplasmic extract; The protein is unlabelled in the ATPase assays; also called N229A MetQ; native N229A; source: E. coli BL21 (DE3) Gold, periplasmic extract, purified (HisTrap, Superdex 200); not shown: His6, C-terminal, kept
With B3 the “kcat of MetQ-stimulated ATPase activity of detergent-solubilized N295A MetNI, 5 mM MgATP, native N229A MetQ 0-50 μM” value [1] was 4.45 s⁻¹, the Kd [2] was 0.113 µM and the Kd [3] was 0.3 µM.

B4: E. coli MetQ substrate-binding protein, wild type, secreted (non-lipidated), C-terminal 6x-histidine tag (natural protein, UniProt P28635 23-271, looked up)
chain: CGQDEKDPNHIKVGVIVGAEQQVAEVAQKVAKDKYGLDVELVTFNDYVLPNEALSKGDIDANAFQHKPYLDQQLKDRGYKLVAVGNTFVYPIAGYSKKIKSLDELQDGSQVAVPNDPTNLGRSLLLLQKVGLIKLKDGVGLLPTVLDVVENPKNLKIVELEAPQLPRSLDDAQIALAVINTTYASQIGLTPAKDGIFVEDKESPYVNLIVTREDNKDAENVKKFVQAYQSDEVYEAANKVFNGGAVKGW
modifications: fluorescein 5-maleimide on the single native cysteine at position 23 (anisotropy experiments)
notes: secreted non-lipidated form isolated from the periplasmic extract; Cys23 is present; WT(apo), WT(LM) and WT(DM) are the same protein without methionine, with 100 uM L-Met or with 100 uM D-Met; native WT co-purifies with L-Met; The protein is unlabelled in the ATPase assays; also called WT MetQ; WT(apo); source: E. coli BL21 (DE3) Gold, periplasmic extract, purified (HisTrap, Superdex 200); not …
For B4, the “kcat of MetQ-stimulated ATPase activity of detergent-solubilized N295A MetNI, 5 mM MgATP, WT(DM) MetQ 0-50 μM with 100 μM D-Met” value [1] was 1.83 s⁻¹, the “kcat of MetQ-stimulated ATPase activity of detergent-solubilized N295A MetNI, 5 mM MgATP, WT(LM) MetQ 0-50 μM with 100 μM L-Met” value [1] was 1 s⁻¹ and the “kcat of MetQ-stimulated ATPase activity of detergent-solubilized N295A MetNI, 5 mM MgATP, WT(apo) MetQ 0-50 μM” value [1] was 4 s⁻¹. For the same binder, the Kd [4] was 0.8 µM, the Kd [5] was 5 µM and the Kd [6] was 8 ± 2 µM. For the same binder, the Kd [3] was 0.4 µM.
